Reference: IntAct's records for PubMed 20111005

B1: CCAAT/enhancer-binding protein beta (Gallus gallus (Chicken)), Q05826 (parent)
chain: MQRLVAWDAACLPIQPPAFKSMEVANFYYEADCLAALNKLHPRAAGGRSMTELTVGDHERAIDFSPYLDPLAASQQPAQPPPPAAAAGGNFEPACSSGGQDFLSDLFAEDYKGSGGGKKPDYTYISLTRHGHPCGSQSHKPGVLPGCFPPQIVETKVEPVFETLDSCKGPRKEEGGAGPGPGGMSSPYGSTVRSYLGYQSVPSGSSGNLSTSSSSSPPGTPNPSESSKSAAGAGGYSGPPAGKNKPKKCVDKHSDEYKLRRERNNIAVRKSRDKAKMRNLETQHKVLELTAENERLQKKVEQLSRELSTLRNLFKQLPEPLLASSPRC

Variants of: B1
Conditions: with smca2_human SMARCA2, P51531
Chain of smca2_human SMARCA2, P51531 (P51531 whole entry): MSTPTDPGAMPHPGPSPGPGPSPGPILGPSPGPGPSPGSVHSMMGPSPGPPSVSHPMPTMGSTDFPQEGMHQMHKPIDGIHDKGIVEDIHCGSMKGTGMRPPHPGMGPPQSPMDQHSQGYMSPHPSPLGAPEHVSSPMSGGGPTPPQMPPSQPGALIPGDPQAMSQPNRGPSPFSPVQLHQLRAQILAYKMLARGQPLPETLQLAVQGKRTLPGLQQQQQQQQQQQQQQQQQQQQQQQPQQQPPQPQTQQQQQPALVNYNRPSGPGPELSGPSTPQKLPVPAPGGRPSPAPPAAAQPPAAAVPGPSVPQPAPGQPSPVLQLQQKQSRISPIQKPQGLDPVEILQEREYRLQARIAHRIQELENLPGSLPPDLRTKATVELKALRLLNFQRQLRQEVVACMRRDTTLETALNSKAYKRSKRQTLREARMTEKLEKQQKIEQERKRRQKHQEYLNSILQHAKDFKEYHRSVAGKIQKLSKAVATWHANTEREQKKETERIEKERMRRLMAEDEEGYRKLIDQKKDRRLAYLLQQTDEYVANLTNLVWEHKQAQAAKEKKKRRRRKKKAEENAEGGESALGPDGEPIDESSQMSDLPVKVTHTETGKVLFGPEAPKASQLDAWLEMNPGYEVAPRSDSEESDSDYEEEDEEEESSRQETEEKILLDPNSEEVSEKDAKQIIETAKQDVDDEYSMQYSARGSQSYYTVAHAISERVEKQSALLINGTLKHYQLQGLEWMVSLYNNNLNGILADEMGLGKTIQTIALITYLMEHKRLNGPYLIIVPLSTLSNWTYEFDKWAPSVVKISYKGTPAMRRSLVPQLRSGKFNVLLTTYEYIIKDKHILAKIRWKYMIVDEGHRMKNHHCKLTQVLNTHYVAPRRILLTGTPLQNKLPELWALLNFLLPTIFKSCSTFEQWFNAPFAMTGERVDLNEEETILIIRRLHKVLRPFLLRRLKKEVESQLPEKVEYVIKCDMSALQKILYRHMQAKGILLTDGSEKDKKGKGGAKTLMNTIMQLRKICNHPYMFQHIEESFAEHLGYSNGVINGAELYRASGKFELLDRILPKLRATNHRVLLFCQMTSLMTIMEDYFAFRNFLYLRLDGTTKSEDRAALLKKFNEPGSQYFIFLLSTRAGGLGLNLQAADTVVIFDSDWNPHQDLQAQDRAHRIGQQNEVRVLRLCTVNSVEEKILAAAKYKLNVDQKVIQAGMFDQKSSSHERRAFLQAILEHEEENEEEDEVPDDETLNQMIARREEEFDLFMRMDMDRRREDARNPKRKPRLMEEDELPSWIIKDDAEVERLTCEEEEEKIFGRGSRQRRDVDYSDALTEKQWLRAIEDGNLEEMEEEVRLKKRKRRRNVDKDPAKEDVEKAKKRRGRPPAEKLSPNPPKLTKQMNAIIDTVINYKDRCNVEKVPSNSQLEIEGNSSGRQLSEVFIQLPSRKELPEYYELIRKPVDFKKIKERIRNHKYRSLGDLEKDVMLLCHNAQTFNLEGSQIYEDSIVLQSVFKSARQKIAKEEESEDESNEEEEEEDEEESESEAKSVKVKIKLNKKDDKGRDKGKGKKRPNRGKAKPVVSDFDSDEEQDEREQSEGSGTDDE

Row | Variant | effect of a mutation on the interaction
1 | R3L | decreasing interaction
